Measured values from paper PMC9953004, “Scandium-44 Radiolabeled Peptide and Peptidomimetic Conjugates Targeting Neuropilin-1 Co-Receptor as Potential Tools for Cancer Diagnosis and Anti-Angiogenic Therapy” (Biomedicines, 2023).

Biological target: Recombinant human NRP-1 (neuropilin-1 co-receptor) (human) (UniProt O14786)
Assay: ELISA; competitive; recombinant human NRP-1 coated on a 96-well plate (200 ng/well, overnight, 4 °C), blocked with 0.5% BSA in PBS; 50 µL compound in PBS (100, 50, 25, 12.5, 6.75 µM) plus 50 µL (400 ng/mL) human (bt)-VEGF-A165 in PBS with 4 µg/mL heparin; 2 h at room temperature; streptavidin-HRP, chemiluminescence; IC50 by nonlinear regression, mean ± SD of three experiments

Recombinant human NRP-1 (neuropilin-1 co-receptor) (human), sequence (O14786 22-856): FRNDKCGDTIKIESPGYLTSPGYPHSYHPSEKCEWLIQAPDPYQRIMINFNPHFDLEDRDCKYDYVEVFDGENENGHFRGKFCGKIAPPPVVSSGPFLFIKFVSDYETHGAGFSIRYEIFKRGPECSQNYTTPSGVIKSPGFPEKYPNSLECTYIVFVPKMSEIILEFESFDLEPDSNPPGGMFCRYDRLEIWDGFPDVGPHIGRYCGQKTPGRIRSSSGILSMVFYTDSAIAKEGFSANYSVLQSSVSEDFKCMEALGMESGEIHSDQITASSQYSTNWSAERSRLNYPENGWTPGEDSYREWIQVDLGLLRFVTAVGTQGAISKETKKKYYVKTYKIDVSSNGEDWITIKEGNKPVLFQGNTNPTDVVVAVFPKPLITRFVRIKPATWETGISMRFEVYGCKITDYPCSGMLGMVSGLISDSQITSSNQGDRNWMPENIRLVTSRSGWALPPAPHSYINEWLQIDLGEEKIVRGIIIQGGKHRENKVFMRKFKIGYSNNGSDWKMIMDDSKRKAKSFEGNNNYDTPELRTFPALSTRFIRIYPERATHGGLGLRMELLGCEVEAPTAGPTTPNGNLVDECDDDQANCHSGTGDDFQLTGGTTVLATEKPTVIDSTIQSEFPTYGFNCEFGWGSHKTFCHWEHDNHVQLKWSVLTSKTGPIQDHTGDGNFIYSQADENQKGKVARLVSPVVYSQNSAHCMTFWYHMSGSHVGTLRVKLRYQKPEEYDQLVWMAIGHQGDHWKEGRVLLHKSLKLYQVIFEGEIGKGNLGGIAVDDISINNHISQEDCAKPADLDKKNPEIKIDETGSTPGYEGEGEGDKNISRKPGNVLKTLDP

| Substance | IC50 |
| --- | --- |
| ^DR7A-^DLys(DOTA-Ga) (peptide) | > 100 µM |
| ^DR7A-^DLys(DOTA-Sc) (peptide) | > 100 µM |
